Measured values as given in paper PMC4072508, “Genome-Wide Prediction and Validation of Peptides That Bind Human Prosurvival Bcl-2 Proteins” (PLoS Computational Biology, 2014).

Target: Bcl-xL, Q07817
Assay: peptide SPOT array, c-Myc-tagged receptor at 1 uM or 100 nM, anti-c-Myc-Cy3

Bcl-xL, Q07817, sequence (Q07817 1-209): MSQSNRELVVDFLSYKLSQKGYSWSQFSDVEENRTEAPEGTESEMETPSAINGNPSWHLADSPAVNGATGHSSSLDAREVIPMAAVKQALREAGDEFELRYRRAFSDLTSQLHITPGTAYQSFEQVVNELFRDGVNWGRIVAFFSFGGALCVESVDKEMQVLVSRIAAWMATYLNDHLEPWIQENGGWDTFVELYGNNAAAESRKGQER

SPOT signal as a fraction of Bim BH3's signal on the same receptor and array | Binder
0.03 | LASIGGLAARLQLWAFKLDYDSMERE [FHOD1]
0.2 | IKKSVTKGEMLKIVLKRFREHFPEIL [MAGEB2]
0.03 | SSLSDGLPVHDANIADELTQKKKMFK [AGBL2]
0.09 | GENIRQAASSLQQASLKLFEMAYKKM [HSPA9]
0.42 | VFERCELARTLKRLLMDGYRGISLAN [LYZ]
0.09 | WRERPDVGRYLRELSGSGLERLRREP [COG8]
1.34 | AIKPVSFIRDDKKIARHFRFGNQEDA [USP36]
0.03 | GEGAEEAAKDLADIAAFFRSGFRKND [TRIO]
0.02 | RYPILENPEILRKTLDDFLNRIALTD [CCNH]
0.02 | GRQVEDAGRVLEGISKSISYDLDGEE [FIBIN]
0.05 | SQDVERFCRQLSSMASKLIISPFTLV [ABCD4]
0.75 | RGRTRGWVQTLARMSRRTRGPVERAA [C6orf223]
0.59 | AHKARALARLLRQTLLAAFSDFKRLQ [FAM43B]
0.24 | ATKRETAATFDKKVAKEFGFQNNGFS [NPLOC4]
0.03 | TNISWRACDHLRCILCDFLVVSYDDY [C8orf37]
0.69 | NEEGQQFALKLHRLLRTSFRNLKNKR
0.03 | SCMATVIHNPLKALLDQFYKEAIEHC [DPF3]
0.51 | PFDCRDYAVVLRKYLDKIYNISMKHP [FOLH1B]
0.86 | EVRSSQFARKLWRSSRRISQVSSGET [NBEAL2]
0.02 | ENGHTDVADVLLQAGADLEHESEGGR [ANKRD17]
0.95 | NEEGQQFALKLHRLGRTSFRNLKNKR
0.18 | DIFMNNVIVRLSQISEDVIRLFKKSK [SRGAP3]
